41 sequences from the nanobody polyreactivity screen of Harvey et al. (2022) can be followed below.

The nature of the series: yeast display, Sf9 membrane polyspecificity reagent, FACS + sequencing; frameworks hold sequencing errors. The procedure, abridged:
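Genes from sorted yeast were amplified by colony PCR, read by MiSeq 2 × 250 sequencing and filtered on CDR length. These cells carried a synthetic nanobody library in Saccharomyces cerevisiae BJ5465 and were sorted by FACS into low and high (top ~1%) gates on anti-HA and streptavidin fluorescence. Polyreactivity is labelled according to the gate of origin.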
For the sequence “QVHLVESGGGLVQAGGSLRLSCAASGSILVWYAMGWYRHAPGKERELVAAISQSGGRTYYADSVKGRFTISRDNAKNNVYLQMNSLKPEDTAVYYGAAFYTSYWGYDYDYWGQGTQVTVSS”, the “polyreactivity (PSR sort gate)” value is recorded as “low polyreactivity”.

Consider “QVHLVESGGGLVQAGGSLRLSCAASGSIYLITAMGWYRQAPGKERELVAAISSRGTSTYYADSVKGRFTISRDNAKNTVYFQMNSLKAEDTAVYYCAARAIRANGYDYWGQCTQVTVSS”, for which the “polyreactivity (PSR sort gate)” value is “high polyreactivity”.

Consider “QVHLVESGGGLVQAGGSLRLSCAASGSTFAKNAMGWYRQAPGKERELVAAITRSAGSTYYADSVKGRFTISRDNAKNTVYLQMNSLKPEDTAVYYCDRRVSGTPWYGYWGQGTQVTVSS”, for which the “polyreactivity (PSR sort gate)” value is given as “high polyreactivity”.

Regarding “QVHLVESGGGLVQAGGSLRLSCAASGSTFAPNAMGWYRQAPGKERELVASIRRGGSTHYADSVKGRFTISRDNAKNSVYLQMNSLKPEDTAVYYCATDQDPCSWYRYDYWGQGTQVTVSS”, the “polyreactivity (PSR sort gate)” value is listed as “low polyreactivity”.

For “QVHLVESGGGLVQAGGSLRLSCAASGSTFDDYVMGWYRQAPGKESELVAAITRSGTSTYYADSVKGRFTISRDNAKNTVYLQMNSLKPEETAVYYCAAGPFGLKPYTLGYNYWGQGTQVTVSS”, the “polyreactivity (PSR sort gate)” value is given as “high polyreactivity”.

As for “QVHLVESGGGLVQAGGSLRLSCAASGSTFGVYAMGWYRQAPAKERELVAAISSSTGSTYYADSVKGRFTISRDNEKNTVYLQMNSLKPEDTAVYFCAAAGYGKVRGDYWGQGSQVTVSS”, the “polyreactivity (PSR sort gate)” value is reported as “low polyreactivity”.

“QVHLVESGGGLVQAGGSLRLSCAASGSTFGYYAMGWYRQAPGKEREFVAAISSSGGSTYYADSVKGRFTISRDNAKNTVYLQMNSLKPEDTAVYYCARVGFPGFYWGQGTQVTVSS”: the “polyreactivity (PSR sort gate)” value is “high polyreactivity”.

Regarding “QVHLVESGGGLVQAGGSLRLSCAASGSTFRFYAMGWYRQAPGKERELVATISRTGSTNYADSVKGRFTISRDNAKNTVYLQMNSLKPEDTAVYYCAAQRRRYPGYVQDDYWGQGTQVTVSS”, the “polyreactivity (PSR sort gate)” value is on record as “high polyreactivity”.

In the case of “QVHLVESGGGLVQAGGSLRLSCAASGSTFRSNAMGWYRQAPGKERELVASITSRGGSTYYADSVKGRFTISRDNAKNTVYLQMNSLKPEDTAVYYCATARSYLTYSYHYDYWGQGTQVTVSS”, the “polyreactivity (PSR sort gate)” value is on record as “low polyreactivity”.

As for “QVHLVESGGGLVQAGGSLRLSCAASGSTFSGNGMGWYRQAPGKERELVAAINWYGGTTYYADSVKGRFTISRDNAKNTVYLQMNSLKQEDTAVYYCARESTLTYYSDDFDYWGQGTQVTVSS”, the “polyreactivity (PSR sort gate)” value is recorded as “low polyreactivity”.

In the case of “QVHLVESGGGLVQAGGSLRLSCAASGSTFVANTMRWSRQAPGKERELVASITSGDSTNYADSVKGRFTISRDNAKNTVYLQMNSLKPEDTAVYYCSAETVWYYVGGQLIYYSWGQGTQVTVSS”, the “polyreactivity (PSR sort gate)” value is given as “low polyreactivity”.

“QVHLVESGGGLVQAGGSLRLSCAASGSTFYNNAMGWYRQAPGKERELVAAINYSGGSTNYADSVKGRFTISRDNAKNTVYLQMNILKPEDTAVYYCATDLHWLVTKYGYWGQGTQVTVSS”: the “polyreactivity (PSR sort gate)” value is recorded as “low polyreactivity”.

Turning to “QVHLVESGGGLVQAGGSLRLSCAASGSTFYYTAMGWYRQPPGKESELVAAISRGGGSTYYADSVKGRFTISRDNAKNTVYVQMNSLKPEDTAVYYCAARRVGGGFYTWRNPAYEYWGQGTQVTVSS”, the “polyreactivity (PSR sort gate)” value was “high polyreactivity”.

With “QVHLVESGGGLVQAGGSLRLSCAASGSTIFLYMGWYRQAPGKERELVAAITVSGGSTYYADSVKGRFTISRDNAKNTVYLQMNSLKPEDTAVYYCNADWVLRYDYWGLGTQVTVSS”, the “polyreactivity (PSR sort gate)” value was “low polyreactivity”.

Take “QVHLVESGGGLVQAGGSLRLSCAASGSTLGRYAMGWYRQAPGKERELVAAISWRGGSTYYADSVKGRFTISRDNAKNTDYLQMHSLKPEDTAVYYCADTYRFSEYYYWGQGTQVTVSS”: the “polyreactivity (PSR sort gate)” value is on record as “high polyreactivity”.

Turning to “QVHLVESGGGLVQAGGSLRLSCAASGSTLSFYAMGWYRQAPGKERELVAAISYSTGTTYYADSVKGRFTISRDNAKNTVYLQMNSLKPEDSAVYYCAARWVWLHSRYDYWGQGTQVTVSS”, the “polyreactivity (PSR sort gate)” value is given as “high polyreactivity”.

With “QVHLVESGGGLVQAGGSLRLSCAASGSTLVTNAIGWYRQAPGKERELVAAITFSGGTTYYADSVKGRFTISRDNAKNTVYLQLNSLKPEDTAVYYCAAENWLEYVGYDFWGQGTHVTVSS”, the “polyreactivity (PSR sort gate)” value is reported as “high polyreactivity”.

With “QVHLVESGGGLVQAGGSLRLSCAASGSTNYYAMGRYRQAPGKEREFVSAISRDASSTYYADSVKGRFTISRDNAKNTVYLQMNSLKPEDTAVYYCAARIIRFSTSADKLVTSRYYYWGQGTQVTVSS”, the “polyreactivity (PSR sort gate)” value is listed as “high polyreactivity”.

Take “QVHLVESGGGLVQAGGSLRLSCAASVRTFYRNAMGWYRQAPGKERELVAAITRSGSTNYADSVKGRFTISRDNAKNTVYLQMNSLKPEDTAVYYCAAKFFRNTYSYGMDYWGQGTQVTVSS”: the “polyreactivity (PSR sort gate)” value is “high polyreactivity”.

As for “QVHLVESGGGLVQAGGSLRLSCAATGRTFAGYAMGWYRQAPGKERQLVAAITNGGSTKYADSVKGRFTISRDNAKNSVYLQMNSLKPEDTAVYYCKARKRFYSGNTLMYYWGQGTQVTVSS”, the “polyreactivity (PSR sort gate)” value is reported as “high polyreactivity”.

On to “QVHLVESGGGLVQAGGSLRLSCAATGSTFPFYTMGWYRQAPGKERELVASISVKGDTTYYADSVKGRFTISRDNAKNTVYLQMNSLKPDDTAVYYCATGPYIWQEWSPGFEYWGQGTQVTVSS”, for which the “polyreactivity (PSR sort gate)” value is given as “low polyreactivity”.

Regarding “QVHLVESGGGLVQAGGSLRLSCAAYGFIFYPYAMGWNRQEPGKERELVAAIDWNGGGTYYADSVKGRFTISRDNAKNTVYLQMNSLKPEDTAVYYCNTYGAYTFDYWGQGTQVTVSS”, the “polyreactivity (PSR sort gate)” value is recorded as “high polyreactivity”.

As to “QVHLVESGGGLVQAGGSLRLSCADSGLTFVFYAMGWYRPAPGKERELVAAISWSTGRTYYPDSVKGRFTISRDTAKNTVYLQMNSLNPEDSAVYYCAASYLGRKYVYWGQGTQVTVSS”, the “polyreactivity (PSR sort gate)” value is reported as “high polyreactivity”.

“QVHLVESGGGLVQAGGSLRLSCADSGRIILDYAMGWYRQAPGKERELVAAITWGGGSTNYADSVKGRFTNSRDNAKNTVYLQMNRLKPEDTAVYYCNADPHDQYDYWGKGTQVTVSS”: the “polyreactivity (PSR sort gate)” value is given as “low polyreactivity”.

“QVHLVESGGGLVQAGGSLRLSCADSGSTFTSYAMGWYRQAPGKERDLVAAINYSGGSTYYADSVKGRFTISRDNAKNTVYLQMNSLKPEDTAVYYCAADGYIRQYVTYYYWGKGTQVTVSS”: the “polyreactivity (PSR sort gate)” value is given as “low polyreactivity”.

Consider “QVHLVESGGGLVQAGGSLRLSCAPSGFTFGYNAMGWYRQAPGKERELVAAISYRDGSTYYADSVKGRFTISRDTAKNTVYLQMNSLKPEDTAVYYCAAEVWYPGWGYDYWGQGTQVTVSS”, for which the “polyreactivity (PSR sort gate)” value is given as “high polyreactivity”.

With “QVHLVESGGGLVQAGGSLRLSCASSGSIFRWYAMGWYRPAPGKERELVAAISTSGGNTYYADSVKGRFTISRDNAKNTVYLQMNSLKPEDTAVYYCNALWYRSLSYRYDYWGQGTQVTVSS”, the “polyreactivity (PSR sort gate)” value is “high polyreactivity”.

As for “QVHLVESGGGLVQAGGSLRLSCASSGSTFGYYAMGWYRQAPGKERELVAAITGRGGSTYYADSVKGRFTISRDNAKNTVYLQLISLKQEDTAVYYCAVGKYRLYYSGAYGYWGQGTQVTVSS”, the “polyreactivity (PSR sort gate)” value is listed as “high polyreactivity”.

Regarding “QVHLVESGGGLVQAGGSLRLSCASSGSTFRSYGMGWYRPAPGKERELVAAISSSGGSTYYADSVKGRFTISRDNAKNTVYLQMNSLKPEDSAVYYCAAGSRLVSARLYYWGQGTQVTVSS”, the “polyreactivity (PSR sort gate)” value is recorded as “high polyreactivity”.

For the sequence “QVHLVESGGGLVQAGGSLRLSCDASGRLIARYAMGWHRPAPGKERELVAAISSGGRTYYADSVKGRFTISRDNAKNTVYLQMNSLKPEDTAVYYCAASSGGATRGHDYWGQGTQVTVSS”, the “polyreactivity (PSR sort gate)” value is “high polyreactivity”.

As for “QVHLVESGGGLVQAGGSLRLSCDASGSTFYCYAMGWYRQAPGKERELVASISWSGGRSYYADSVKGRFTISRDNAKNTDYLQMNSLYPEDTAVYYCAARRKGRYDYWGQGTQVTVSS”, the “polyreactivity (PSR sort gate)” value is on record as “high polyreactivity”.

Turning to “QVHLVESGGGLVQAGGSLRLSCPASGSTIRNYAMGLYRQAPGKERELVAAITKRGGTTYYADSVKGRFTISRDNAKNTVYLQMNSLKPEDTAVYYCAIGYNSSPFDYWGQGTQVTVSS”, the “polyreactivity (PSR sort gate)” value is on record as “high polyreactivity”.

On to “QVHLVESGGGLVQAGGSLRLSCSASGIIFYVYTMGWYRQARGKERELVAAISGSGGSTTYADSVKGRFTISRDNAKNTVYLQMNSLKPEDTAVYYCNAKKWFYRWCKFSEFDYWGQGTQVTVSS”, for which the “polyreactivity (PSR sort gate)” value was “high polyreactivity”.

For the sequence “QVHLVESGGGLVQAGGSLRLSCSASGSIFAINVMGWYRQAPGKEREFVAAITWSGGSTYYADSVKGRVTISRDNAKNTVYLQMFSLKPEDTAVYYCNARYPYKRRDYDYWGQGTQVTVSS”, the “polyreactivity (PSR sort gate)” value is “high polyreactivity”.

For “QVHLVESGGGLVQAGGSLRLSCSASGSTFFPYAMGWYRQAPGKERELVAAITSGGRTKYADSVKGRFTISRDNAKNTVYLQMNSLKPEDNAVYYCAARGLIKEYGGPYRRFGYWGQGTKVTVSS”, the “polyreactivity (PSR sort gate)” value is “high polyreactivity”.

Turning to “QVHLVESGGGLVQAGGSLRLSFAASRSIFSKYVMGWYRQAPGKERELVASITSGGRTNYADSVKGRFTISRDNAKNTVYLQMNSLKPEDTAVYYCAARAFKTWYRSGVDYWGQGTQVTVSS”, the “polyreactivity (PSR sort gate)” value was “low polyreactivity”.

For “QVHLVESGGGLVQAGGSLRLSSAASGITFDDYAMGWYRQAPGKERELVAAISVSGGDTYYADSVKGRFTISRDNAKNTVYLQMNSLKPEVTAVYYCAAEVVSPRWYDYWGQGTQLTVSS”, the “polyreactivity (PSR sort gate)” value was “low polyreactivity”.

Consider “QVHLVESGGGLVQAGGSLRLSSAASGSIFQYNAMGWYRQAPGKERELVAGITTGGDTNYADSVKGRFTISRDNAKNTVYLHMNSLKPEDTAVYYCAARFGQWVSAYDYWGQGTQVTVSS”, for which the “polyreactivity (PSR sort gate)” value is on record as “low polyreactivity”.

Turning to “QVHLVESGGGLVQAGGSLRLTCAASGIIFLRYAIGWYRQAPGKERDLVAAITRGGITYYADSVKGRFTISRDNAKNTVYLQMNSLKPEDTAVYYCAATYSGNYSMCRGYDYWGQGTQVTVSS”, the “polyreactivity (PSR sort gate)” value was “low polyreactivity”.

As for “QVHLVESGGGLVQAGGSLRLTCAASGIIFRLYAMGWYRQAPGKEREFVARISKRGGSTYYADSVKGRFTISRDNSKNTVYLQMNSLKPEDTAVYYCAADAPLSYYHDYDYWGQGTQVTVSS”, the “polyreactivity (PSR sort gate)” value is recorded as “high polyreactivity”.

Turning to “QVHLVESGGGLVQAGGSLRLTCAASGSIFLGHAMGWYRQAPGNERDLVAAISSITGRTYYADSVKGRFTISRDNAKNNVYLHMNSLKPEDTAVYYCNKVSRSFIVNTDDYWGQGTQVTVSS”, the “polyreactivity (PSR sort gate)” value was “high polyreactivity”.
